Measurements reported in patent publication US20220281967A1 (OREGA BIOTECH, published 2022).

T1: human IL-17B (R&D Systems, ref: 1248-IB/CF) (UniProt Q9UHF5 21-180)
T1 chain: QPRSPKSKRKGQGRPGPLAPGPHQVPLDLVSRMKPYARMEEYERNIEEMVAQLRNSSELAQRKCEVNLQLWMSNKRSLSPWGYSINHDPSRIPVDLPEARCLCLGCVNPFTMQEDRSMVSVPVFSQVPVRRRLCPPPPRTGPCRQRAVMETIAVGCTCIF

T2: human IL-17B (R&D Systems, ref: 1248-IB/CF) (human, UniProt Q9UHF5 21-180)
T2 construct: Bought recombinant protein; also called hIL-17B; interleukin 17B
T2 sequence: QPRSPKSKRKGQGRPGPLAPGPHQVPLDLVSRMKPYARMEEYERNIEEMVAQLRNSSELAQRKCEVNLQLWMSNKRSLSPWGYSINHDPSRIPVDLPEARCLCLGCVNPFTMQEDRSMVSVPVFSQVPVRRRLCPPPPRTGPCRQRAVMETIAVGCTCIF


What was measured:
[1] = target: T1, human IL-17B (R&D Systems, ref: …); experiment: ELISA
[2] = target: T2, human IL-17B (R&D Systems, ref: …); experiment: ELISA, human IL-17B coated on the plate, goat anti-mouse HRP detection
Method: Immediately coat a Maxisorp 96-well plate; [0250] […] Incubate 15 min at RT with 50 μl of ABTS substrate (Sigma-Aldrich, ref: A3219-100 ML) [0260] Measure DO (Optical Density) at 405 nm

Binder	EC50 [1] [ng/mL]	binding result [2]
Antibody 21H6 (antibody, V domains shown, Mouse monoclonal antibody directed against human IL-17B; also called mAb 21H6) VH: QVTLKESGPGILQPSQTLSLTCSFSGFSLSTFGMGVGWIRQPSGKGLEWLAHIWWDDDKYYNPALKGRLTISKDTSKNQVFLKIANVDTADTATYFCARIEDALDYWGQGTSVTVSS VL: DIVMTQSPATLSVTPGDRVSLSCRASQNISDYLHWYQQKSHESPRLLIKYTSQSISGIPSRFSGSGSGSDFTLSINSVEPEDVGVYYCQNGHSFPFTFGSGTKLEIK	2.28	binds
Antibody 13H5 (antibody, V domains shown, Mouse monoclonal antibody directed against human IL-17B; also called mAb 13H5) VH: QVTLKESGPGILQPSQTLSLTCSFSGFSLSTFGMGVGWIRQPSGKGLEWLAHIWWDDDKYYNPALKSRLTISKDTSKNQVFLKIANVDTADTATYYCARMNDGYLYYWGQGTSVTVSS VL: QIVLTQSPAIMSASPGEKVTMTCSASSSVSYMYWYQQKPGSSPRLLIYDTSNLASGVPVRFSGSGSGTSYSLTISRMEAEDAATYYCQQWSSYPFTFGSGTKLEIK	6.64	binds

The next lines start with the values.

EC50 [1] [ng/mL]	binding result [2]	Binder
13.7	binds	Antibody 12F9 (antibody, V domains shown, Mouse monoclonal antibody directed against human IL-17B; also called mAb 12F9) VH: QVQLQQSGPELVKPGASVKISCKASGYTFTDYFINWVRQRPGQGLEWIGWIFPGSGSTYYHEKFKGKATLTVDKSSSTAYMLLSSLTSEDSAVYFCARTLYGNWYFDVWGTGTTVTVSS VL: DVLMTQTPLSLPVSLGDQASISCRSSQSIVHSNGNTYLEWYLQKPGQSPKLLIYKVSNRFSGVPDRFSGSGSGTDFTLKISRVEAEDLGVYYCFQGSHVPYTFGGGTKLEIK
6.88	binds	Antibody 18G9 (antibody, V domains shown, Mouse monoclonal antibody directed against human IL-17B; also called mAb 18G9; 18G9a) VH: QITLKESGPGILKPSQTLSLTCSFSGFSLSTSGMGVGWIRQPSGKGLEWLAHIWWDDDKYYNPSLKSQLTISKDTSRNQVFLRITSVDTADTATYYCARRTQGYFDYWGQGTTLTVSS VL: DILMTQSPASLAVSLGQRATISCKASQSVDYDGDSYMNWYQQKPGQPPKLLIYAASNLESGIPARFSGSGSGTDFTLNIHPVEEEDAATYYCQQSNEDPLTFGAGTKLELK
